# Laboratory results reported in PMC11546298.
# Molecular target: eYFP-MotD (P. aeruginosa)
# Assay: FRET or BRET
substance,measurement,value
eCFP-MotY (from UniProt A0A0H2ZD91 1-321) (natural protein),FRET efficiency (E),1.54%
